Laboratory results from patent US20210231650A1.

Biological target: RGD peptide
Assay: single-molecule conductance, electrodes carrying RGD peptide

αvβ3 integrin (receptor)
single-molecule conductance peak G: 0.3 nS
